To fix the notation:
B1: VL Y91A (antibody, V domains shown)
VH: EVQLVESGGGLVQPGGSLRLSCAASGFNIYYNYIHWVRQAPGKGLEWVAEFSPYSGSTYYADSVKGRFTISADTSKNTAYLQMNSLRAEDTAVYYCARSAAIVDWYDYFKGFDYWGQGTLVTVSS
VL: DIQMTQSPSSLSASVGDRVTITCRASQSVSSAVAWYQQKPGKAPKLLIYSASSLYSGVPSRFSGSRSGTDFTLTISSLQPEDFATYYCQQAGSYLYTFGQGTKVEIK
B2: VH Y59A (antibody, V domains shown)
VH: EVQLVESGGGLVQPGGSLRLSCAASGFNIYYNYIHWVRQAPGKGLEWVAEFSPYSGSTAYADSVKGRFTISADTSKNTAYLQMNSLRAEDTAVYYCARSAAIVDWYDYFKGFDYWGQGTLVTVSS
VL: DIQMTQSPSSLSASVGDRVTITCRASQSVSSAVAWYQQKPGKAPKLLIYSASSLYSGVPSRFSGSRSGTDFTLTISSLQPEDFATYYCQQYGSYLYTFGQGTKVEIK
B3: VL Y55A (antibody, V domains shown)
VH: EVQLVESGGGLVQPGGSLRLSCAASGFNIYYNYIHWVRQAPGKGLEWVAEFSPYSGSTYYADSVKGRFTISADTSKNTAYLQMNSLRAEDTAVYYCARSAAIVDWYDYFKGFDYWGQGTLVTVSS
VL: DIQMTQSPSSLSASVGDRVTITCRASQSVSSAVAWYQQKPGKAPKLLIYSASSLASGVPSRFSGSRSGTDFTLTISSLQPEDFATYYCQQYGSYLYTFGQGTKVEIK
B4: VH F51A (antibody, V domains shown)
VH: EVQLVESGGGLVQPGGSLRLSCAASGFNIYYNYIHWVRQAPGKGLEWVAEASPYSGSTYYADSVKGRFTISADTSKNTAYLQMNSLRAEDTAVYYCARSAAIVDWYDYFKGFDYWGQGTLVTVSS
VL: DIQMTQSPSSLSASVGDRVTITCRASQSVSSAVAWYQQKPGKAPKLLIYSASSLYSGVPSRFSGSRSGTDFTLTISSLQPEDFATYYCQQYGSYLYTFGQGTKVEIK
B5: VL Y96A (antibody, V domains shown)
VH: EVQLVESGGGLVQPGGSLRLSCAASGFNIYYNYIHWVRQAPGKGLEWVAEFSPYSGSTYYADSVKGRFTISADTSKNTAYLQMNSLRAEDTAVYYCARSAAIVDWYDYFKGFDYWGQGTLVTVSS
VL: DIQMTQSPSSLSASVGDRVTITCRASQSVSSAVAWYQQKPGKAPKLLIYSASSLYSGVPSRFSGSRSGTDFTLTISSLQPEDFATYYCQQYGSYLATFGQGTKVEIK
B6: VH Y54A (antibody, V domains shown)
VH: EVQLVESGGGLVQPGGSLRLSCAASGFNIYYNYIHWVRQAPGKGLEWVAEFSPASGSTYYADSVKGRFTISADTSKNTAYLQMNSLRAEDTAVYYCARSAAIVDWYDYFKGFDYWGQGTLVTVSS
VL: DIQMTQSPSSLSASVGDRVTITCRASQSVSSAVAWYQQKPGKAPKLLIYSASSLYSGVPSRFSGSRSGTDFTLTISSLQPEDFATYYCQQYGSYLYTFGQGTKVEIK
B7: VH Y33A (antibody, V domains shown)
VH: EVQLVESGGGLVQPGGSLRLSCAASGFNIYYNAIHWVRQAPGKGLEWVAEFSPYSGSTYYADSVKGRFTISADTSKNTAYLQMNSLRAEDTAVYYCARSAAIVDWYDYFKGFDYWGQGTLVTVSS
VL: DIQMTQSPSSLSASVGDRVTITCRASQSVSSAVAWYQQKPGKAPKLLIYSASSLYSGVPSRFSGSRSGTDFTLTISSLQPEDFATYYCQQYGSYLYTFGQGTKVEIK
B8: VH Y31R (antibody, V domains shown)
VH: EVQLVESGGGLVQPGGSLRLSCAASGFNIYRNYIHWVRQAPGKGLEWVAEFSPYSGSTYYADSVKGRFTISADTSKNTAYLQMNSLRAEDTAVYYCARSAAIVDWYDYFKGFDYWGQGTLVTVSS
VL: DIQMTQSPSSLSASVGDRVTITCRASQSVSSAVAWYQQKPGKAPKLLIYSASSLYSGVPSRFSGSRSGTDFTLTISSLQPEDFATYYCQQYGSYLYTFGQGTKVEIK
B9: VH Y31I (antibody, V domains shown)
VH: EVQLVESGGGLVQPGGSLRLSCAASGFNIYINYIHWVRQAPGKGLEWVAEFSPYSGSTYYADSVKGRFTISADTSKNTAYLQMNSLRAEDTAVYYCARSAAIVDWYDYFKGFDYWGQGTLVTVSS
VL: DIQMTQSPSSLSASVGDRVTITCRASQSVSSAVAWYQQKPGKAPKLLIYSASSLYSGVPSRFSGSRSGTDFTLTISSLQPEDFATYYCQQYGSYLYTFGQGTKVEIK
B10: VH Y31S (antibody, V domains shown)
VH: EVQLVESGGGLVQPGGSLRLSCAASGFNIYSNYIHWVRQAPGKGLEWVAEFSPYSGSTYYADSVKGRFTISADTSKNTAYLQMNSLRAEDTAVYYCARSAAIVDWYDYFKGFDYWGQGTLVTVSS
VL: DIQMTQSPSSLSASVGDRVTITCRASQSVSSAVAWYQQKPGKAPKLLIYSASSLYSGVPSRFSGSRSGTDFTLTISSLQPEDFATYYCQQYGSYLYTFGQGTKVEIK
B11: VH Y31N (antibody, V domains shown)
VH: EVQLVESGGGLVQPGGSLRLSCAASGFNIYNNYIHWVRQAPGKGLEWVAEFSPYSGSTYYADSVKGRFTISADTSKNTAYLQMNSLRAEDTAVYYCARSAAIVDWYDYFKGFDYWGQGTLVTVSS
VL: DIQMTQSPSSLSASVGDRVTITCRASQSVSSAVAWYQQKPGKAPKLLIYSASSLYSGVPSRFSGSRSGTDFTLTISSLQPEDFATYYCQQYGSYLYTFGQGTKVEIK
B12: VH W100aK (antibody, V domains shown)
VH: EVQLVESGGGLVQPGGSLRLSCAASGFNIYYNYIHWVRQAPGKGLEWVAEFSPYSGSTYYADSVKGRFTISADTSKNTAYLQMNSLRAEDTAVYYCARSAAIVDKYDYFKGFDYWGQGTLVTVSS
VL: DIQMTQSPSSLSASVGDRVTITCRASQSVSSAVAWYQQKPGKAPKLLIYSASSLYSGVPSRFSGSRSGTDFTLTISSLQPEDFATYYCQQYGSYLYTFGQGTKVEIK
B13: VH Y31E (antibody, V domains shown)
VH: EVQLVESGGGLVQPGGSLRLSCAASGFNIYENYIHWVRQAPGKGLEWVAEFSPYSGSTYYADSVKGRFTISADTSKNTAYLQMNSLRAEDTAVYYCARSAAIVDWYDYFKGFDYWGQGTLVTVSS
VL: DIQMTQSPSSLSASVGDRVTITCRASQSVSSAVAWYQQKPGKAPKLLIYSASSLYSGVPSRFSGSRSGTDFTLTISSLQPEDFATYYCQQYGSYLYTFGQGTKVEIK
B14: VH W100aR (antibody, V domains shown)
VH: EVQLVESGGGLVQPGGSLRLSCAASGFNIYYNYIHWVRQAPGKGLEWVAEFSPYSGSTYYADSVKGRFTISADTSKNTAYLQMNSLRAEDTAVYYCARSAAIVDRYDYFKGFDYWGQGTLVTVSS
VL: DIQMTQSPSSLSASVGDRVTITCRASQSVSSAVAWYQQKPGKAPKLLIYSASSLYSGVPSRFSGSRSGTDFTLTISSLQPEDFATYYCQQYGSYLYTFGQGTKVEIK
B15: VH Y31K (antibody, V domains shown)
VH: EVQLVESGGGLVQPGGSLRLSCAASGFNIYKNYIHWVRQAPGKGLEWVAEFSPYSGSTYYADSVKGRFTISADTSKNTAYLQMNSLRAEDTAVYYCARSAAIVDWYDYFKGFDYWGQGTLVTVSS
VL: DIQMTQSPSSLSASVGDRVTITCRASQSVSSAVAWYQQKPGKAPKLLIYSASSLYSGVPSRFSGSRSGTDFTLTISSLQPEDFATYYCQQYGSYLYTFGQGTKVEIK

T1 sequence (P47871 26-477): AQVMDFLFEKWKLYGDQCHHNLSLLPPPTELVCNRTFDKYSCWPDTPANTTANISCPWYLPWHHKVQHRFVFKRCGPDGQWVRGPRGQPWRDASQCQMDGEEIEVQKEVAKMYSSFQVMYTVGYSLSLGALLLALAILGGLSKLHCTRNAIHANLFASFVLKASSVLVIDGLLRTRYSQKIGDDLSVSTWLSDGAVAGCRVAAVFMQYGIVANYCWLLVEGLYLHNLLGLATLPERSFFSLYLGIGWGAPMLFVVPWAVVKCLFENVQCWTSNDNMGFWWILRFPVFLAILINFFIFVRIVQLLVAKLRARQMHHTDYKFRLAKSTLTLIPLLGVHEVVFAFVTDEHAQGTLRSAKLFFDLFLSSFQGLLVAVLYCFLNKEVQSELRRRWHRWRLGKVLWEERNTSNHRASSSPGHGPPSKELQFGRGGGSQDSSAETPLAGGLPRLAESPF

The first assay concerns the target T1, GCGR extracellular domain (human, UniProt P47871). Briefly: SPR.
Molecule B1 came in with a Kd of 0.84 nM.

Consider B2, for which the Kd was 0.32 nM.

With B3, binding was characterised by a dissociation constant (Kd) of 0.74 nM.

B4: the Kd came out at 1.5 nM.

In turn, B5 displayed a Kd of 0.93 nM.

B6 displayed a dissociation constant (Kd) of 46 nM.

With B7, binding was put at a Kd of 53 nM.

A further assay addresses T1, GCGR extracellular domain. Briefly: SPR. The source holds these as a separate data set.
Regarding B8, the binding result is reported as “no binding”.

Take B9: the binding result is on record as “no binding”.

Take B10: the binding result is recorded as “no binding”.

With B11, the binding result is “no binding”.

As for B12, the binding result is reported as “no binding”.

B13: the binding result is listed as “no binding”.

For B14, the binding result is recorded as “no binding”.

B15: the binding result is “no binding”.

Another assay concerns the target T1, GCGR extracellular domain. Briefly: SPR. This is another data set of the same source.
B1 had a Kd of 98.5 nM.

The molecule B7 had a Kd of 267 nM.

Values taken from patent publication US20260317437 (published 2026).
